The source of these data is US20200338049A1, “AGENT FOR TREATING FABRY DISEASE, ANALGESIC FOR EXTERNAL USE AND PERSPIRATION ACCELERATOR” (OSAKA UNIVERSITY, priority 2016, published 2020).

One assay relates to p-mTOR. Nature of the assay: p-mTOR staining of angiokeratoma of Fabry disease patient before and after ERT. The following applies: p-mTOR fluorescent staining. Format: in vivo, human. The text has this:
(§1) The activation state of mTOR in an angiokeratoma of a Fabry disease patient, and the effects of ERT (conventional treatment method to treat Fabry disease) on an angiokeratoma, were checked. An enzyme used in ERT of this test was agalsidase beta, and specific processes of the treatment method were based on usual dosages.
A piece of the skin of a Fabry disease patient including an angiokeratoma lesion was stained with an anti-p-mTOR antibody, and the activation state of mTOR was checked.

The subject of assay [1] is angiokeratoma of Fabry disease patient. Nature of the assay: Course of angiokeratomas of Fabry disease patient receiving ERT. Format: in vivo, human. The following applies: ERT over eight years.
Source text: as §1

The test system of assay [2] is dorsal root ganglion cells (DRG cells). Nature of the assay: Axon extension of cultured dorsal root ganglion cells. The following applies: DRG cells of 20-week-old wild-type mouse. Format: cell-based. On the procedure: Dorsal root ganglion cells (DRG cells) were taken from a 20-week-old wild-type mouse. The dorsal root ganglion nerve cells thus taken were first subjected to extraction with Ham's 12 containing 30% Percoll, and then were cultured at 37° C. for 2 days with the use of a Gibco Neurobasal-A medium (manufactured by Gibco) supplemented with 2 mM GlutaMaxl, 2% B-27 w/o Vitamin A, 5 ng/mL recombinant BDNF carrier free, and 10 ng/mL recombinant human-beta NGF carrier free. Then, the culture medium was replaced with a medium supplemented with 2 mM GlutaMaxl, 2% B-27 w/o Vitamin A, 10 μM Retinoic Acidn, and 100 ng/mL recombinant human-beta NGF carrier free, and then a comparative observation of the extension of axons was carried out with a microscope (BZ-X710, manufactured by KEYENCE), and microscope images were taken.

B1: agalsidase beta (protein, UniProt P06280 32-429, looked up)
Alpha-galactosidase A: LDNGLARTPTMGWLHWERFMCNLDCQEEPDSCISEKLFMEMAELMVSEGWKDAGYEYLCIDDCWMAPQRDSEGRLQADPQRFPHGIRQLANYVHSKGLKLGIYADVGNKTCAGFPGSFGYYDIDAQTFADWGVDLLKFDGCYCDSLENLADGYKHMSLALNRTGRSIVYSCEWPLYMWPFQKPNYTEIRQYCNHWRNFADIDDSWKSIKSILDWTSFNQERIVDVAGPGGWNDPDMLVIGNFGLSWNQQVTQMALWAIMAAPLFMSNDLRHISPQAKALLQDKDVIAINQDPLGKQGYQLRQGDNFEVWERPLSGLAWAVAMINRQEIGGPRSYTIAVASLGKGVACNPACFITQLLPVKRKLGFYEWTSRLRSHINPTGTVLLQLENTMQMSLKDLL
modifications: agalsidase beta
notes: enzyme replacement therapy; enzyme used was agalsidase beta, usual dosages
For B1, in the assay with p-mTOR, the “mTOR activity in angiokeratoma after ERT” value was “mTOR is also active”. The effect on angiokeratomas entry in assay [1] is given as “not effective in treating angiokeratomas”.

B2: BDNF: recombinant BDNF carrier free, brain-derived neurotrophic factor (protein, UniProt P23560 19-247, looked up)
Neurotrophic factor BDNF …: APMKEANIRGQGGLAYPGVRTHGTLESVNGPKAGSRGLTSLADTFEHVIEELLDEDQKVRPNEENNKDADLYTSRVMLSSQVPLEPPLLFLLEEYKNYLDAANMSMRVRRHSDPARRGELSVCDSISEWVTAADKKTAVDMSGGTVTVLEKVPVSKGQLKQYFYETKCNPMGYTKEGCRGIDKRHWNSQCRTTQSYVRALTMDSKKRIGWRFIRIDTSCVCTLTIKRGR
Take B2: the extension of axons result in assay [2] was “axons were found to have extended”.
